# Test: soluble fraction after stress (log2 fold change); higher = more stays soluble; pooled small domains, quantitative proteomics
# Conditions: stress: 50 degC
# Procedure, shortened: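 Pooled custom libraries of small protein domains were each held under stress at 50°C. The read-out, high-throughput quantitative proteomics, tracked how much of each protein stayed soluble. This is reported as a base-two log fold change used to indicate aggregation propensity. Higher values mean more protein remains in solution.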
row,Sequence,soluble fraction (log2)
1,HMVRSKLEIVPVPEDAVVKIAGLKRLTYQAYQNEDVPYMVYKNGYEAQSGTVFMDTDKTLTVTLEESP,-0.0311
2,HMVSAMLLHKKEILNLLAEEPEALHFASLLRAFGGRHIKNELKQIVDDLVRSGEILRLRGNRYTLPGADN,-1.21
3,HMVSATKAFVNGGNIVVSSPKATRVAVYNVAGQKVAEQAFAGKATIKASDFAKGIYVLKFNDNTVLKLT,-0.518
4,HMVSDAELTSQATTAITAYPGTSVEVKEGQAHLSGTFATEADKQAAIDALKKIQDVKDVHDMATV,0.123
5,HMVSDSAELSAFVADVIKENAQAVADYKGGKTNVFGWLMGQIIKKSGGKATPAAAAALLKAELEK,0.0521
6,HMVSKQVTVNGIQYYQYTVQKSEGFYAISTKFGVTQDDIILANPSTKEGLRVGQEILIPIKT,-0.186
7,HMVSLLDWAYKQVRRMLFSGDLPQGQKIVVAQLANQLSISPTPVKEALNRLAVEGLLEAVPRRGFQVR,-0.229
8,HMVSQELIMLGNRIREYRKERGFSQEILAEKSGVSTNTISRIEGGQMAMSVGILQRIVKALGVDANVMLG,-0.332
9,HMVSQKPKERELWFREQLELAGLRLDPHAISAINETLGNDTGRFPGIIDTLLSTYGAGKKLSYDDVVMFL,-0.477
10,HMVSRAFEEETVKRAESGNQEAALFALELAIREIEHSYEKSKIIDYFVSKVRLFLDNGVSLERALGIH,0.0637
11,HMVSRKIENPYWANKEKQHIIAEFFYPDTNKRVTASIMNDGSNRDYEEILRGYSIEQIDANTNRRLEER,0.436
12,HMVSSEGLASGIERMLVEFGLETDKGRRFAMWSLLYMLGSAPDLDVAFKDPRDREAARTFMDLLDQANA,-0.69
13,HMVSSVAAISQMIDEKDRYTSEHSHRVAEYARLIGAHMGFAGEELDSLYRSALLHDIGKIAVPDAILNK,-0.338
14,HMVSTDPVHLFNLGTANRRAGRASEAITSYRKFMEAAPQHPQVPEARAYIHDMEVLLQERQKSEQAASQLS,0.0843
15,HMVSTSVTVTGDLNVRADSRADSDLVGALIPGQTVTRLAVLDNGWSKIRFDDGAGTVVEGYVLSEYLQADG,0.0817
16,HMVSVEINTVERDETFRKMFTSGWKPENRIQALAVEQAKKNGLGRMSEVAGLASFRGIWKQATEQVALEA,-0.12
17,HMVSVLDHIVGIGAKRRQSLWNHFGTIDKIKAASIDELLKAPGMNRPSAEAVYYFFEAQRQLRGK,-0.744
18,HMVTEKNALTIEIEDLTKRFGNQRESLLPILQEVQLKHGHISDFAQQEIARLLDIHPVEVYGVVTFFSFLS,-2.21
19,HMVTGSIYERKGIYYAIVSYYVDGRRKQKSVSTGLSVKGNKRRALEFLENLKRTYETKESMENMD,-3.16
20,HMVTIEEMMDRLLTRVQRAVNMSFSEFSGEAKEKVEVIVSFLALLELVKQGAVDVLQHENFSDIRIENT,-0.857
21,HMVTKQKKLVLTIIERSHGHLSAEEIFFRAREEMPNIALGTVYRNLNSLTEEGIVRRITLPGTSDRFDT,-2.79
22,HMVTKTTYAYERLKREIMDGTLGQGEKLVVNAISQRYQVSPMPIREALLKLEQEGLVQSAPHRGAWVHK,-0.345
23,HMVTNELFGTRLRAFRKEKGLTIEQLAERVGLSPNYLGDIERGKKLPSMATFIRLVNELDISADEL,-0.293
24,HMVTQVDYGTFLTRIDEGKVKSVEIQDNQIAFTAIDEAGKENIYVTGKVNDPELVDRLLAADIEDFSQVIP,0.12
25,HMVTTTEAAKMLLVNAGHDVIKDGLTGASWASNTMKLADADGLLASVATKPNDALPRQYAAQMIYN,0.076
26,HMVVANTAIKSELQNIVANENKQAPLSDQKIVDQLKQAGFDISRRTVVKYRDALGIPTSRNRKR,-0.131
27,HMVVEGMQFDRGYLSQYMVTDNEKMVADLENPYILITDKKISNIQEILPLLESILQSSRPLLIIADD,-0.214
